Data published in the supplement of paper PMC10567573.

B1: KRT18 (parent)
chain: KSQDLAKIMADIRAQYDELARKNR

Variants of: B1
Test: protein stability index of a GFP-peptide fusion (GPS, HEK-293T) (PSI 1-6); higher = more stable
Settings: c terminus: a fixed tail appended
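Also: lentivirally expressed fusions sorted by FACS into six bins by GFP to DsRed ratio, PSI derived from sequencing read proportions per bin multiplied by bin number.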

Variant	protein stability index
K22A	2.67
K22Q	2.92
K22D	3.35
K22G	3.04
K22M	2.44
K22T	2.45
K22V	2.23
K22I	1.89
K22L	2.43
K22Y	2.29
K22F	2.43
K22W	1.88
K22H	3.1
K22S	2.88
K22P	2.85
K22C	2.32
K22R	2.79
K22E	3.04
K22N	2.7
A6P	3.61
A6T	2.94
A6L	2.65
A6V	2.29
A6G	3.31

Variant	protein stability index
A6Y	2.33
A6F	2.17
A6H	2.71
A6W	1.98
A6M	2.33
A6I	2.01
A6K	2.28
A6Q	3.14
A6S	3.04
A6N	3.01
A6R	2.54
A10M	2.3
A10L	2.68
A10F	2.41
A10R	2.4
A10C	2.91
A10T	3.02
A10E	3.18
A10H	2.75
A10N	3.09
A10V	3.23
A10Q	2.89
A10P	4.14
A10G	3.81

Variant	protein stability index
A10W	2.54
A10K	2.91
A10I	2.73
A10Y	2.51
A10D	2.57
A10S	2.84
D17I	2.01
D17V	2.2
D17N	2.65
D17S	2.41
D17G	2.72
D17C	1.96
D17L	2.29
D17F	2.14
D17H	2.67
D17P	3.16
D17Q	2.13
D17M	1.51
D17K	2.87
D17W	1.92
D17R	2.61
D17Y	2.37
D17A	2.54
D17E	1.85

Variant	protein stability index
D17T	2.27
I12W	1.88
I12G	4.45
I12H	3.55
I12C	3.23
I12M	4.04
I12E	5.46
I12Y	3.55
I12S	4.36
I12N	4.26
I12F	3.03
I12R	3.74
I12V	3.28
I12L	2.65
I12K	4.45
I12T	4.07
I12D	4.77
I12Q	4.41
I12A	4
I12P	4.56
E18N	2.62
E18Y	3.24
E18F	2.74
E18K	1.99

Variant	protein stability index
E18P	2.8
E18H	2.76
E18R	2.39
E18W	1.96
E18C	2.45
E18A	2.59
E18Q	2.68
E18L	2.38
E18I	2.23
E18S	2.72
E18V	2.31
E18M	2.54
E18G	2.66
E18D	2.16
E18T	2.35
A14I	3.21
A14Q	2.14
A14V	2.68
A14C	3.05
A14M	2.67
A14W	1.97
A14Y	3.27
A14N	2.73
A14L	2.73

Variant	protein stability index
A14S	3.63
A14K	2.4
A14R	2.71
A14G	3.39
A14P	3.66
A14T	2.58
A14E	2.89
A14D	2.8
A14H	3.16
A14F	2.74
R21W	2.47
R21G	3.2
R21P	3.55
R21L	2.5
R21M	2.83
R21F	2.39
R21H	3.26
R21A	3.1
R21T	2.83
R21I	3.24
R21S	2.95
R21C	2.68
R21Y	2.65
R21Q	2.59

Variant	protein stability index
R21K	2.9
R21E	2.14
R21V	1.91
R21D	2.36
R21N	2.96
I8F	1.64
I8T	3.27
I8V	2.99
I8L	3.13
I8A	3.06
I8E	4.17
I8C	3.37
I8S	4.34
I8K	3.79
I8H	3.8
I8Y	3.23
I8G	4.54
I8P	4.5
I8N	3.86
I8Q	4.1
I8R	3.35
I8D	4.13
I8M	3.42
I8W	2.4

Variant	protein stability index
K7P	3.88
K7W	2.14
K7I	2.16
K7N	2.86
K7S	2.46
K7Y	1.86
K7L	2.37
K7C	2.63
K7H	2.73
K7D	2.76
K7Q	2.43
K7F	1.9
K7G	3.14
K7A	2.41
K7R	2.5
K7M	2.48
K7E	2.47
K7T	2.67
K7V	3.32
M9W	2.38
M9F	2.77
M9P	4.67
M9S	3.89
M9Y	3.08

Variant	protein stability index
M9K	3.8
M9C	3.14
M9T	3.66
M9V	2.73
M9G	4.12
M9N	4.11
M9D	4.72
M9Q	3.64
M9R	3.8
M9H	3.68
M9A	3.71
M9L	2.23
M9I	2.03
M9E	4.63
D11G	2.12
D11R	2.85
D11Q	2.96
D11H	2.71
D11A	1.86
D11C	1.73
D11W	1.88
D11Y	1.7
D11F	1.8
D11E	2.14

Variant	protein stability index
D11M	2.02
D11T	2.02
D11P	3.56
D11K	1.8
D11I	1.88
D11N	2.84
D11V	2.14
D11L	1.52
D11S	2.21
A20Q	2.94
A20R	3.09
A20H	3.12
A20T	2.52
A20N	2.93
A20F	2.69
A20I	2.47
A20V	2.85
A20E	4.03
A20C	2.38
A20D	3.42
A20Y	1.71
A20P	2.98
A20M	2.51
A20G	3.19

Variant	protein stability index
A20K	3.19
A20S	2.87
A20L	2.03
A20W	1.67
L19W	2.38
L19P	2.98
L19Y	2.73
L19H	3.39
L19D	3.75
L19M	3.2
L19I	3.12
L19S	3.71
L19K	3.74
L19G	3.44
L19C	3.08
L19F	2.46
L19Q	3.59
L19R	3.63
L19A	3.52
L19E	4.01
L19T	3.58
L19V	3.27
L19N	3.63
Y16S	3.88

Variant	protein stability index
Y16E	4.37
Y16I	3.08
Y16K	3.93
Y16V	3.58
Y16M	3.31
Y16C	3.82
Y16F	2.83
Y16N	4.13
Y16P	4.47
Y16W	2.67
Y16Q	3.89
Y16H	3.32
Y16L	3.65
Y16A	4.24
Y16T	3.9
Y16R	3.79
Y16G	3.28
Y16D	4.38
R13K	2.92
R13P	4.12
R13H	2.53
R13D	4.35
R13M	1.83
R13W	2.79

Variant	protein stability index
R13L	2.3
R13G	2.8
R13E	3.75
R13T	2.78
R13V	2.42
R13A	2.47
R13Y	1.75
R13Q	2.85
R13S	2.73
R13F	1.93
R13N	3.62
R13C	2.06
R13I	1.92
N23E	3.83
N23R	2.5
N23K	2.87
N23F	2.07
N23P	3.52
N23Q	2.65
N23A	2.9
N23G	2.61
N23M	2.02
N23L	2.51
N23H	2.56

Variant	protein stability index
N23C	3.06
N23I	2.58
N23D	3.86
Q15G	3.43
Q15C	2.37
Q15T	2.24
Q15S	2.57
Q15D	3.49
Q15F	2.34
Q15V	2.06
Q15R	2.6
Q15N	3
Q15H	1.97
Q15Y	2.16
Q15W	2.46
Q15A	2.06
Q15K	2.4
Q15I	1.96
Q15M	2.14
Q15E	2.01
Q15L	1.9
Q15P	3.84
